Experimental data: patent US20210283054A1

Legend:
[1] = biological target: Fluorogenic Homopolymer (DP=20) of NorGly-E(EDANS)…(dabcyl)GSGSG-NH2; assay: cell-based or functional assay
[2] = biological target: NorGly-E(EDANS)…(dabcyl)GSGSG-NH2; assay: cell-based or functional assay
[3] = system: T1, thrombin substrate monomer (norbornene-GALVPRGSGERDG-NH2)
T1 sequence: GALVPRGSGERDG

[4] = system: T2, Thrombin Homopolymer (20 mer)
T2 sequence: GALVPRGSGERDG

[5] = system: T3, Thrombin Homopolymer (30 mer)
T3 sequence: GALVPRGSGERDG

[6] = system: T4, Thrombin Homopolymer (10 mer)
T4 sequence: GALVPRGSGERDG

| Homopolymer V0 (initial velocity of proteolysis) [1] | Monomer V0 (initial velocity of proteolysis) [2] | fold faster initial rate (V0) of the monomer than of the homopolymer [2] | Substance | proteolytic cleavage by RP-HPLC [3] | proteolytic cleavage by RP-HPLC [4] | proteolytic cleavage by RP-HPLC [5] | proteolytic cleavage by RP-HPLC [6] |
| --- | --- | --- | --- | --- | --- | --- | --- |
| 0.0021 µM/min | 0.2 µM/min | 17 to 95 fold | Pronase (Roche, cat. #10165921001) |  |  |  |  |
|  |  |  | thrombin (Sigma, cat. #T6884-100UN) | the monomeric peptide was readily degraded by thrombin | homopolymers at several degrees of polymerization were resistant to cleavage relative to the monomer, albeit not completely shut off from proteolysis | homopolymers at several degrees of polymerization were resistant to cleavage relative to the monomer, albeit not completely shut off from proteolysis | homopolymers at several degrees of polymerization were resistant to cleavage relative to the monomer, albeit not completely shut off from proteolysis |
